Laboratory results taken from US20070172455A1.

Legend:
[1] = target: soluble form of gp130 (sgp130) (human) (UniProt P40189); assay: plate binding assay on sgp130 captured by anti-human gp130 mAb; rhuIL-6 at 500 ng/ml with sIL-6RδVal at 2 to 500 ng/ml, detected with rabbit anti-IL-6R; Scatchard plot
[2] = target: gp130 on F10.9 melanoma cells (UniProt Q00560); assay: cell-based or functional assay
gp130 on F10.9 melanoma cells, sequence (Q00560 23-917 limits assumed): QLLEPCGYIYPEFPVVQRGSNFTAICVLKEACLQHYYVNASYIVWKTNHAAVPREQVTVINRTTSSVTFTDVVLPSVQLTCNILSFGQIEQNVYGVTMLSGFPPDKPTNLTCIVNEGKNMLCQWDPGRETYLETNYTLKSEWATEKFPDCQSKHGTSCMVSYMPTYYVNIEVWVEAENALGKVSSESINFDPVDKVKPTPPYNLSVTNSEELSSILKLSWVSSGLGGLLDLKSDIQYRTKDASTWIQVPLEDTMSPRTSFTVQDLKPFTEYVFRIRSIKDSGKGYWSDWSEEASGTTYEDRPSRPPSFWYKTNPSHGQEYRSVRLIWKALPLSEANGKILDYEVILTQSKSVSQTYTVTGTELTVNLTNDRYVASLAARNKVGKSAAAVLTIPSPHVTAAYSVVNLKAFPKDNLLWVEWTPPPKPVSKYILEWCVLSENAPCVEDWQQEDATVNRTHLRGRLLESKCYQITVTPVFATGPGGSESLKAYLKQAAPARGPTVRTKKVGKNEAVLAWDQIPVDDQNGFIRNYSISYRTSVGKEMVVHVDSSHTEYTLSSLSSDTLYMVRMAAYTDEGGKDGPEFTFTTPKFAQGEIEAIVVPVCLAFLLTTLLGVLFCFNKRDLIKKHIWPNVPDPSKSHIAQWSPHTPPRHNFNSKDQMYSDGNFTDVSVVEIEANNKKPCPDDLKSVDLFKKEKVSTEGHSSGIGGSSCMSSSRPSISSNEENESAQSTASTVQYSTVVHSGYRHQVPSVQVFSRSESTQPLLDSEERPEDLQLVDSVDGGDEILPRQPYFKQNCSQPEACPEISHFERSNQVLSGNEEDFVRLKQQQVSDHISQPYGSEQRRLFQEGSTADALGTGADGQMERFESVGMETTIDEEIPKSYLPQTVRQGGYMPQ

soluble form of gp130 (sgp130) (human), sequence (P40189 23-619 limits assumed): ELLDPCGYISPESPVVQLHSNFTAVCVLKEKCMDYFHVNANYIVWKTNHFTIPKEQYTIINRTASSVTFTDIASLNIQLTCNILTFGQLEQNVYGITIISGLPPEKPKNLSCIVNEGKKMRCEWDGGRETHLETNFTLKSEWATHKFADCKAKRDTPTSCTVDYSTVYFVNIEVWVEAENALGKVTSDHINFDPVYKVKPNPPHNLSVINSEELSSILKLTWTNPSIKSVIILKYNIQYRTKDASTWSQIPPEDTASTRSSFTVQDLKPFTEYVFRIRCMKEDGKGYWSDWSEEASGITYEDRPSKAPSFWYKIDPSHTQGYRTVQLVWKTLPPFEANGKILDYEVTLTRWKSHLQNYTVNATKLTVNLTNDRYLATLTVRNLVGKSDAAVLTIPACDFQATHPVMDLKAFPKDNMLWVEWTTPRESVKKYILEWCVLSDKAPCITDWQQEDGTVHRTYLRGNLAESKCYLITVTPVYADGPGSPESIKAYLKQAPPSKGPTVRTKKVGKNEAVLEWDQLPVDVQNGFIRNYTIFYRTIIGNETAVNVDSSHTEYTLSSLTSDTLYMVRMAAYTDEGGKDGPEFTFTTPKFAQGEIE

mixture of human IL-6 and sIL-6R (rhuIL-6 together with human sIL-6RδVal) (from UniProt P08887 20-356; P05231 29-212)
Kd [1]: 0.26 nM
maximal inhibition of F10.9 cells (growth inhibition, crystal violet, 4 days); IL-6 concentration in the mixture [2]: 7.5 nM
maximal inhibition of F10.9 cells (growth inhibition, crystal violet, 4 days); sIL-6RδVal concentration in the mixture [2]: 2 nM
